Data reported in patent US20120219942, “Methods Employing McrA to Detect 5-Methyl Cytosine” (Brookhaven Science Associates, LLC, published 2012).

Columns and labels:
[1] = biological target: T1, McrA (rMcrA-S, C-terminal StrepII) (Escherichia coli, UniProt P24200 P24200:1-277); assay: EMSA; NEBuffer 3, RT; conditions: tags: C-terminal StrepII SAWSHPQFEK
T1 sequence: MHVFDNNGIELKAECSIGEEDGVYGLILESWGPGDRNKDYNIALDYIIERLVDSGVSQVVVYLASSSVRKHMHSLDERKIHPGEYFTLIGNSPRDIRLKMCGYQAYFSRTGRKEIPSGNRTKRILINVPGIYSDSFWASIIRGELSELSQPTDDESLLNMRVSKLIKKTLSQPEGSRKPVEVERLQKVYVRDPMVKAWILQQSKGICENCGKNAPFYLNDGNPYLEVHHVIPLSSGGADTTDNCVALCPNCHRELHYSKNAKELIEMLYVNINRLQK
Description: (§1) EMSA binding assays. Reactions (10 μl) typically contained a mixture of 10-25 pMol of various test DNAs, and 250 ng sonicated E. coli. ER2925DNA as a non-methylated, non-specific competitor in 50 mM Tris-HCl, 100 mM NaCl, 1 mM dithiothreitol, 10 mM MgCl₂ (NEBuffer #3), supplemented, with 100 μg/ml BSA. We started the reactions adding 25-175 pMol McrA-S; after 45 min at RT, the entire sample was loaded on 10% acrylamide Tris-Acetate/EDTA gel (1×TAE: 40 mM Tris-Acetate, 1 mM disodium EDTA) which was electrophoresed at RT. Thereafter, the gels were stained with ethidium bromide (0.5 μg/ml) at RT and visualized with UV light. Then, we stained the gels with Coomassie Blue to detect rMcrA-S.

[2] = biological target: T1, McrA (rMcrA-S, C-terminal StrepII); assay: EMSA; Ym5CGR somewhat higher affinity; conditions: tags: C-terminal StrepII SAWSHPQFEK
Description: as §1

[3] = biological target: T1, McrA (rMcrA-S, C-terminal StrepII); assay: EMSA; C opposite m5C; conditions: tags: C-terminal StrepII SAWSHPQFEK; mismatch C opposite m5C
Description: as §1
(§2) We next tested the ability of rMcrA-S to gel-shift ds-cassettes wherein an A, C, T, U, or I residue is placed opposite the m⁵C.

[4] = biological target: T1, McrA (rMcrA-S, C-terminal StrepII); assay: EMSA; U opposite m5C; conditions: tags: C-terminal StrepII SAWSHPQFEK; mismatch U opposite m5C
Description: as §1, §2

[5] = biological target: T1, McrA (rMcrA-S, C-terminal StrepII); assay: EMSA; high affinity; NEBuffer 3, RT; Mg independent; conditions: tags: C-terminal StrepII SAWSHPQFEK
Description: as §1

[6] = biological target: T1, McrA (rMcrA-S, C-terminal StrepII); assay: EMSA; hemimethylated; conditions: tags: C-terminal StrepII SAWSHPQFEK
Description: as §1, §2

[7] = biological target: T1, McrA (rMcrA-S, C-terminal StrepII); assay: EMSA; NEBuffer 3, 100 mM NaCl, 10 mM MgCl2, RT; conditions: tags: C-terminal StrepII SAWSHPQFEK
Description: as §1

[8] = biological target: T1, McrA (rMcrA-S, C-terminal StrepII); assay: EMSA; A opposite m5C; conditions: tags: C-terminal StrepII SAWSHPQFEK; mismatch A opposite m5C
Description: as §1, §2

[9] = biological target: T1, McrA (rMcrA-S, C-terminal StrepII); assay: EMSA; T opposite m5C; conditions: tags: C-terminal StrepII SAWSHPQFEK; mismatch T opposite m5C
Description: as §1, §2

B1: Gm5CGG cassette (dsDNA)
DNA 1: CCCTCTGGCGGAGGAGGCTCCTGC
DNA 2: GCAGGAGCCTCCTCCGCCAGAGGG
modifications: 5mC at CpG (M.SssI), top 9, bottom 15
binding result [1]: binds

B2: Tm5CGG cassette (dsDNA)
DNA 1: CCCTCTGTCGGAGGAGGCTCCTGC
DNA 2: GCAGGAGCCTCCTCCGACAGAGGG
modifications: 5mC at CpG (M.SssI), top 9, bottom 15
binding result [2]: binds

B3: m5CGC cassette (dsDNA)
DNA 1: CCCTCTGACGCAGGAGGCTCCTGC
DNA 2: GCAGGAGCCTCCTGCGTCAGAGGG
modifications: 5mC at CpG (M.SssI), top 9, bottom 15
binding result [1]: no binding

B4: Cm5CGG cassette (M.SssI) (dsDNA)
DNA 1: CCCTCTGCCGGAGGAGGATCCTGC
DNA 2: GCAGGATCCTCCTCCGGCAGAGGG
modifications: 5mC at CpG (M.SssI), top 9, bottom 15
binding result [2]: binds

B5: m5C/C mismatch cassette (dsDNA)
DNA 1: GCCTTCAGCGCCGGCGGATCCAGT
DNA 2: ACTGGATCCGCCCGCGCTGAAGGC
modifications: 5mC at position 12 of top strand only
binding result [3]: no binding

B6: m5CGT cassette (dsDNA)
DNA 1: CCCTCTGACGTAGGAGGCTCCTGC
DNA 2: GCAGGAGCCTCCTACGTCAGAGGG
modifications: 5mC at CpG (M.SssI), top 9, bottom 15
binding result [1]: no binding

B7: m5C/U mismatch cassette (dsDNA)
DNA 1: GCCTTCAGCGCCGGCGGATCCAGT
DNA 2: ACTGGATCCGCCUGCGCTGAAGGC
modifications: 5mC at position 12 of top strand only; U in bottom strand opposite m5C
binding result [4]: no binding

B8: Cm5CGG cassette (single methylated HpaII site) (dsDNA)
DNA 1: GCCTTCAGCGCCGGCGGATCCAGT
DNA 2: ACTGGATCCGCCGGCGCTGAAGGC
modifications: 5mC at position 12 of both strands
binding result [5]: binds

B9: hemimethylated Cm5CGG cassette (m5C/G) (dsDNA)
DNA 1: GCCTTCAGCGCCGGCGGATCCAGT
DNA 2: ACTGGATCCGCCGGCGCTGAAGGC
modifications: 5mC at position 12 of top strand only
binding result [6]: binds

B10: Gm5CGA cassette (dsDNA)
DNA 1: CCCTCTGGCGAAGGAGGCTCCTGC
DNA 2: GCAGGAGCCTCCTTCGCCAGAGGG
modifications: 5mC at CpG (M.SssI), top 9, bottom 15
binding result [1]: binds

B11: three m5CpG cassette (dsDNA)
DNA 1: GCCTTCAGCGCCGGCGGATCCAGT
DNA 2: ACTGGATCCGCCGGCGCTGAAGGC
modifications: 5mC at positions 9, 12, 15 of both strands
binding result [7]: binds

B12: m5C/A mismatch cassette (dsDNA)
DNA 1: GCCTTCAGCGCCGGCGGATCCAGT
DNA 2: ACTGGATCCGCCAGCGCTGAAGGC
modifications: 5mC at position 12 of top strand only
binding result [8]: no binding

B13: Cm5CGA cassette (dsDNA)
DNA 1: CCCTCTGCCGAAGGAGGCTCCTGC
DNA 2: GCAGGAGCCTCCTTCGGCAGAGGG
modifications: 5mC at CpG (M.SssI), top 9, bottom 15
binding result [2]: binds

B14: Am5CGA cassette (dsDNA)
DNA 1: CCCTCTGACGAAGGAGGCTCCTGC
DNA 2: GCAGGAGCCTCCTTCGTCAGAGGG
modifications: 5mC at CpG (M.SssI), top 9, bottom 15
binding result [1]: binds

B15: Tm5CGA cassette (dsDNA)
DNA 1: CCCTCTGTCGAAGGAGGCTCCTGC
DNA 2: GCAGGAGCCTCCTTCGACAGAGGG
modifications: 5mC at CpG (M.SssI), top 9, bottom 15
binding result [2]: binds

B16: m5C/T mismatch cassette (dsDNA)
DNA 1: GCCTTCAGCGCCGGCGGATCCAGT
DNA 2: ACTGGATCCGCCTGCGCTGAAGGC
modifications: 5mC at position 12 of top strand only
binding result [9]: no binding

B17: Am5CGG cassette (dsDNA)
DNA 1: CCCTCTGACGGAGGAGGCTCCTGC
DNA 2: GCAGGAGCCTCCTCCGTCAGAGGG
modifications: 5mC at CpG (M.SssI), top 9, bottom 15
binding result [1]: binds
